Test results published in paper PMC3534898.

Target: Presenilin 1 (mouse (endogenous in primary neurons of CD1 mice)), P49769
Experiment: FRET or BRET
Conditions: remark: other sources report otherwise

B1: amyloid β precursor protein, P12023 18-770 (natural protein)
chain: LEVPTDGNAGLLAEPQIAMFCGKLNMHMNVQNGKWESDPSGTKTCIGTKEGILQYCQEVYPELQITNVVEANQPVTIQNWCKRGRKQCKTHTHIVIPYRCLVGEFVSDALLVPDKCKFLHQERMDVCETHLHWHTVAKETCSEKSTNLHDYGMLLPCGIDKFRGVEFVCCPLAEESDSVDSADAEEDDSDVWWGGADTDYADGGEDKVVEVAEEEEVADVEEEEADDDEDVEDGDEVEEEAEEPYEEATERTTSTATTTTTTTESVEEVVREVCSEQAETGPCRAMISRWYFDVTEGKCVPFFYGGCGGNRNNFDTEEYCMAVCGSVSTQSLLKTTSEPLPQDPDKLPTTAASTPDAVDKYLETPGDENEHAHFQKAKERLEAKHRERMSQVMREWEEAERQAKNLPKADKKAVIQHFQEKVESLEQEAANERQQLVETHMARVEAMLNDRRRLALENYITALQAVPPRPHHVFNMLKKYVRAEQKDRQHTLKHFEHVRMVDPKKAAQIRSQVMTHLRVIYERMNQSLSLLYNVPAVAEEIQDEVDELLQKEQNYSDDVLANMISEPRISYGNDALMPSLTETKTTVELLPVNGEFSLDDLQPWHPFGVDSVPANTENEVEPVDARPAADRGLTTRPGSGLTNIKTEEISEVKMDAEFGHDSGFEVRHQKLVFFAEDVGSNKGAIIGLMVGGVVIATVIVITLVMLKKKQYTSIHHGVVEVDAAVTPEERHLSKMQQNGYENPTYKFFEQMQN
- FRET efficiency (E FRET), vehicle treated cells: 7.07%
